This assay addresses ACE2-Fc (soluble human ACE2 fused to human IgG Fc) (human) (UniProt Q9BYF1). In words: BLI. On the technique in general: Biolayer interferometry detects binding as a change in optical thickness at a sensor tip.

ACE2-Fc (soluble human ACE2 fused to human IgG Fc) (human), sequence (Q9BYF1 18-738): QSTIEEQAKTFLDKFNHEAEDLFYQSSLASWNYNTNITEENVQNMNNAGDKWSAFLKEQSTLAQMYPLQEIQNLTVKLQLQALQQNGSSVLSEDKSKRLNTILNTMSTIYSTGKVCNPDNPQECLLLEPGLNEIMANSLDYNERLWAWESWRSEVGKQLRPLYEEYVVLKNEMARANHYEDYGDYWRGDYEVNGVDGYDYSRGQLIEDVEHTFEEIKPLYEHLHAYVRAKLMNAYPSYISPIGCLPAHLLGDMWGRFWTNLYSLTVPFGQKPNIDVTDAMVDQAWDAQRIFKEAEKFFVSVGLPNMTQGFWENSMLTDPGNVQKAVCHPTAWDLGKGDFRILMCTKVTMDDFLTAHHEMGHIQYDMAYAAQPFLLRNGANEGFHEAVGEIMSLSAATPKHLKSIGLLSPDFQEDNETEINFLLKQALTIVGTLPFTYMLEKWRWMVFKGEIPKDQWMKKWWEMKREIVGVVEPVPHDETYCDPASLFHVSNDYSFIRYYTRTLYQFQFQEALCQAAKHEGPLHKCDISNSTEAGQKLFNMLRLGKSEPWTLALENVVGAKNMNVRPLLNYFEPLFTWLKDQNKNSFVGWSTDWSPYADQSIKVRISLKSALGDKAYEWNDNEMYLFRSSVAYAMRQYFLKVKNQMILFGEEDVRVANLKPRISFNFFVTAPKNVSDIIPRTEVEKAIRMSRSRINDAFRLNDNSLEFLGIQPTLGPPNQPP

Consider “SARS-CoV-1 S-Trimer (wild-type SARS-CoV S ectodomain fused to Trimer-Tag) (from UniProt P59594 14-1193) (domain or fragment)”, for which the Kd (as a rule, the equilibrium constant for the complex coming apart) was 1.2 nM.

The values above are taken from publication doi:10.1101/2020.09.21.306357.
